From publication PMC4860004

Molecular target: IRΔβ (human insulin receptor ectodomain construct, (αβ)2 homodimer) (human) (UniProt P06213)
Assay: crystal structure

stoichiometry N: 2
Substance: IRΔβ (human insulin receptor ectodomain construct, (αβ)2 homodimer) (from UniProt P06213-2 28-1370)
